Assay results: patent US20050042227A1 (published 2005)
One block for each binder: values may come before it.

Columns and labels:
[1] = biological target: mLRP/LRPTmMegT mini-receptor (MEGt) (UniProt Q07954 3293-4444); test: cell-based or functional assay
[2] = biological target: T1, recombinant human alpha-L-iduronidase (Aldurazyme) (human, UniProt P35475 27-653, limits assumed); test: ligand blot, sLRP2 spotted on membrane, detection with antibodies
T1 construct: also called rhIDU; Recombinant human IDU
T1 sequence (looked up): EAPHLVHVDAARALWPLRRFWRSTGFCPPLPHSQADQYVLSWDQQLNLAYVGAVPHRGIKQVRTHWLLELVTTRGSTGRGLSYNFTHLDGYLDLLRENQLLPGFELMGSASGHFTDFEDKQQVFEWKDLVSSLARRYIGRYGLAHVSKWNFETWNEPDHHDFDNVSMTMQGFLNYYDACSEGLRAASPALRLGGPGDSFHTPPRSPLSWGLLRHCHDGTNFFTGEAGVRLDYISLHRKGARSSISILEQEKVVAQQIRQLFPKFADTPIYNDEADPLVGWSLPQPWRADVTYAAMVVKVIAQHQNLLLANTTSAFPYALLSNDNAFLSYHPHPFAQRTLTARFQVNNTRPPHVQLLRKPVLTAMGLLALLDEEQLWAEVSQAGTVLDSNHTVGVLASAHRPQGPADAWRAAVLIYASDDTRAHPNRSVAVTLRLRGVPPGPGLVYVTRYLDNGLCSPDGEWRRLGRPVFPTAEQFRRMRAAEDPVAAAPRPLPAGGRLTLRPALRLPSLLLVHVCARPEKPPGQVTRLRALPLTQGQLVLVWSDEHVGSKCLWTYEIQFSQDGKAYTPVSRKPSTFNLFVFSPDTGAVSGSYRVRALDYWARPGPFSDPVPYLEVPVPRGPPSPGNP
Protocol: Membranes were then mounted in a Bio-Rad dot blot apparatus. The second ligand-binding domain of LRP1 (sLRP2, 1 μg/well) was applied to the membrane by vacuum filtration. The membrane was then cut into sections that were placed in separate wells of a 24-well plate. Membranes were blocked in TBS (20 mM Tris pH 7.4, 150 mM Sodium Chloride) with 5 mM Calcium Chloride and 3% non-fat dry milk for 30 minutes. Ligands were incubated with each membrane spot for 2 hours at room temperature. Individual blots were washed 2×5 minutes each with blocking buffer and then incubated with different antibodies in block buffer for one hour at room temperature to detect binding.

Chain of mLRP/LRPTmMegT mini-receptor (MEGt) (Q07954 3293-4444): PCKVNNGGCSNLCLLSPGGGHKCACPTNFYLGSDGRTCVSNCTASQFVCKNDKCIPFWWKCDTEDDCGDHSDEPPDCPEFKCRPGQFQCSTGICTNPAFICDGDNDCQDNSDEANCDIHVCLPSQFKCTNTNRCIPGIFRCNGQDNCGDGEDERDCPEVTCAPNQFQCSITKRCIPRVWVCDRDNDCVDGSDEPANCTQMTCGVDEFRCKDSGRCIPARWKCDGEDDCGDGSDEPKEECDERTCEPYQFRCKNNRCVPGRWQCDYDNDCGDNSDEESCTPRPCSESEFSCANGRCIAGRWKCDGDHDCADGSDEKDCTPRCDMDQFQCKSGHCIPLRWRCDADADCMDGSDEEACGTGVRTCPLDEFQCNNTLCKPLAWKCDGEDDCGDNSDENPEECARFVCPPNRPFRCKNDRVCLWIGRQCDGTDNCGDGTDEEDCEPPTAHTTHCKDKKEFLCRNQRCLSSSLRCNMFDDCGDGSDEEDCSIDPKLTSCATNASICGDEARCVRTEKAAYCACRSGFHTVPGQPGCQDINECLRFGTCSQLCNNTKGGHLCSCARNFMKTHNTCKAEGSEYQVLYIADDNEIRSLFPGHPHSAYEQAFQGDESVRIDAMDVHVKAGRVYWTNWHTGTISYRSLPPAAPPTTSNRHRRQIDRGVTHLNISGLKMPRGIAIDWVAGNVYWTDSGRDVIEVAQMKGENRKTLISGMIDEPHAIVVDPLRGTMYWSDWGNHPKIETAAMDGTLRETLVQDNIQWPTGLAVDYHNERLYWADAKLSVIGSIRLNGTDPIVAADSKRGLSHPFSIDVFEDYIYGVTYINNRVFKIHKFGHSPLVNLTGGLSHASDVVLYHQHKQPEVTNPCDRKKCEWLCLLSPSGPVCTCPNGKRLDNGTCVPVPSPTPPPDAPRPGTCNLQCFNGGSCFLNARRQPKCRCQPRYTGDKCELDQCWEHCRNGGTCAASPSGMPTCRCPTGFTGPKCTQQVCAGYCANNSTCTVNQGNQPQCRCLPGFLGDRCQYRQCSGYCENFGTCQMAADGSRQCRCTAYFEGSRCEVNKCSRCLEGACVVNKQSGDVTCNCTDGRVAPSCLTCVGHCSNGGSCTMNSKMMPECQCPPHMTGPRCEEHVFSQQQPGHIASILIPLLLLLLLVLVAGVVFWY

ratio of apical-to-basolateral to basolateral-to-apical permeability coefficient of 125I-RAP, MEGt-transfected MDCK [1]: 460 times
B1: receptor-associated protein (RAP) (ligand)
chain: YSREKNQPKPSPKRESGEEFRMEKLNQLWEKAQRLHLPPVRLAELHADLKIQERDELAWKKLKLDGLDEDGEKEARLIRNLNVILAKYGLDGKKDARQVTSNSLSGTQEDGLDDPRLEKLWHKAKTSGKFSGEELDKLWREFLHHKEKVHEYNVLLETLSRTEEIHENVISPSDLSDIKGSVLHSRHTELKEKLRSINQGLDRLRRVSHQGYSTEAEFEEPRVIDLWDLAQSANLTDKELEAFREELKHFEAKIEKHNHYQKQLEIAHEKLRHAESVGDGERVSRSREKHALLEGRTKELGYTVKKHLQDLSGRISRARH

binding result [2]: no binding
B2: sLRP2, the entire second ligand-binding domain of human LRP1 (receptor, UniProt Q07954 806-1183, looked up)
chain: KCRVNNGGCSSLCLATPGSRQCACAEDQVLDADGVTCLANPSYVPPPQCQPGEFACANSRCIQERWKCDGDNDCLDNSDEAPALCHQHTCPSDRFKCENNRCIPNRWLCDGDNDCGNSEDESNATCSARTCPPNQFSCASGRCIPISWTCDLDDDCGDRSDESASCAYPTCFPLTQFTCNNGRCININWRCDNDNDCGDNSDEAGCSHSCSSTQFKCNSGRCIPEHWTCDGDNDCGDYSDETHANCTNQATRPPGGCHTDEFQCRLDGLCIPLRWRCDGDTDCMDSSDEKSCEGVTHVCDPSVKFGCKDSARCISKAWVCDGDNDCEDNSDEENCESLACRPPSHPCANNTSVCLPPDKLCDGNDDCGDGSDEGELCD
notes: Recombinant soluble fragment made as in Bu and Rennke 1996; also called immobilized LRP
